Results on 3 molecules are retold here after US20190367620A1.

The target of test [1] is human FGFR1 (His-tagged FGFR1b-IIIb or FGFR1b-IIIc; isoform not told at that place) (human) (UniProt P11362). Put plainly: ELISA on coated human FGFR1b (IIIb or IIIc not told). Background: An ELISA detects its analyte on a solid surface through an enzyme-linked reagent.
Test [2] deals with T1, FGFR1 D2 point mutant T61A (human), P11362.
T1 chain: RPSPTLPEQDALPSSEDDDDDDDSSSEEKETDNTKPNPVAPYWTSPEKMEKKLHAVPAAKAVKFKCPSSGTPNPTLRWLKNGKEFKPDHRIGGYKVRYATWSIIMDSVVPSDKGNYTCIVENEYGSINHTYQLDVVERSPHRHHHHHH
As to the kind of experiment: SPR as in Example 1.8. The settings on record: remark: other sources report otherwise.

Test [3] has as its target T2, FGFR1 D2 point mutant K95A (human), P11362.
T2 chain: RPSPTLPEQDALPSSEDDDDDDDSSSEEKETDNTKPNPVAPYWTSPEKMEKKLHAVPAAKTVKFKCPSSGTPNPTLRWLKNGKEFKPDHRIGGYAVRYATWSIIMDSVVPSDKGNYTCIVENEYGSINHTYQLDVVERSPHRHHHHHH
Put plainly: SPR as in Example 1.8. Conditions: remark: other sources report otherwise.

In test [4] the target is T3, FGFR1 D2 point mutant K60A (human), P11362.
T3 chain: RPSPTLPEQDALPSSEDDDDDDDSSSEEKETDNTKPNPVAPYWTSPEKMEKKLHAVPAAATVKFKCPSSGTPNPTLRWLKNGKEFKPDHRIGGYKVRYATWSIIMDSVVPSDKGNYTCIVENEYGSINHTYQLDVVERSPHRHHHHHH
As to the kind of experiment: SPR as in Example 1.8. Conditions: remark: other sources report otherwise.

Test [5] deals with T4, FGFR1 D2 point mutant K63A (human), P11362.
T4 chain: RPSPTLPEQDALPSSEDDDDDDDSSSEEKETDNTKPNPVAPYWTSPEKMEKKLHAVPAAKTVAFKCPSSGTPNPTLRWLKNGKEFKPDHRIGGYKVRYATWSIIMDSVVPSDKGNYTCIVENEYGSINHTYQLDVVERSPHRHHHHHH
As to the kind of experiment: SPR as in Example 1.8. Conditions: remark: other sources report otherwise.

Another test addresses huFGFR1a-IIIc (human) (UniProt P11362). Put plainly: SPR (Biacore 4000), antibody captured, His-tagged FGFR1 injected; no unit in the table, nM inferred from paragraph 90. On the technique in general: Surface plasmon resonance follows binding to a sensor surface in real time, without labels.
Test [6] deals with T1, FGFR1 D2 point mutant T61A (human), …. As to the kind of experiment: SPR; free energy change relative to wild-type D2. Conditions: remark: other sources report otherwise.
The target of test [7] is T2, FGFR1 D2 point mutant K95A (human), …. As to the kind of experiment: SPR; free energy change relative to wild-type D2. The settings on record: remark: other sources report otherwise.
Test [8] has as its target T3, FGFR1 D2 point mutant K60A (human), …. As to the kind of experiment: SPR; free energy change relative to wild-type D2. The settings on record: remark: other sources report otherwise.
For test [9], the target named is T4, FGFR1 D2 point mutant K63A (human), …. Put plainly: SPR; free energy change relative to wild-type D2. The settings on record: remark: other sources report otherwise.
The target in test [10] is human FGFR1 (His-tagged FGFR1b-IIIb or FGFR1b-IIIc; isoform not told at that place) (human) (UniProt P11362). Put plainly: ELISA on coated human FGFR1b (IIIb or IIIc not told), IgG1 format.

Sequence of huFGFR1a-IIIc (human) (P11362 22-376): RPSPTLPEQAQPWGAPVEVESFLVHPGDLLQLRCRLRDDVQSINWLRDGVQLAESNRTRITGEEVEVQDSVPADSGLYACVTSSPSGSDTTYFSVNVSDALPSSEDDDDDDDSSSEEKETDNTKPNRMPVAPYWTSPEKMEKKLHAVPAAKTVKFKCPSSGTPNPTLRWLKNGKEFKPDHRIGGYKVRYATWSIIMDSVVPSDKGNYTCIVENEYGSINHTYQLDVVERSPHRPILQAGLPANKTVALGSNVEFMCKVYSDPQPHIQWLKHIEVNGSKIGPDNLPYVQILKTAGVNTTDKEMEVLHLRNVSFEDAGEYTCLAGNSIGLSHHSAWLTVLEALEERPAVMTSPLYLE

B1: mAb #D01 IgG1 (antibody, V domains shown)
VH: QVQLQESGPGLVKPSGTLSLTCAVSGGSISSNNWWSWVRQPPGKGLEWIGEIYHSGSTSYNPSLKSRVTISVDKSKNQFSLKLSSVTAADTAVYYCARATDWFDHWGQGTLVTVSS
VL: SYVLTQPPSVSVAPGQTARITCGGNNIGSESVHWYQQKPGQAPVLVVYDDSDRPSGIPERFSGSNSGNTATLTISRVEAGDEADYYCQVWDSTSDHRVFGGGTKLTVLG
As for B1, the EC50 – broadly, the midpoint of the concentration-response curve – in test [1] was 0.015 nM.

B2: mAb #A08 (antibody, V domains shown)
VH: EVQLQESGPGLVKPSGTLSLTCAVSGGSISSNNWWSWVRQPPGKGLEWIGEIYHSGSTSYNPSLKSRVTISVDKSKNQFSLKLNSVTAADTAVYYCARGTDWFDPWGQGTLVTVSS
VL: QAVLTQPPSVSVAPGQTARITCGGNNIGSESVHWYQQKPGQAPVLVVYDDSDRPSGIPERFSGSNSGNTATLTISRVEAGDEADYYCQVWDSTSDHRVFGGGTKLTVL
Consider B2, for which the dissociation constant (Kd) (usually the concentration at which binding is half-saturated) came out at 5.89 nM in [2]; 5.86 nM in [3]; 13.4 nM in test [4]; 13.9 nM in test [5]; 0.7 nM in the test with huFGFR1a-IIIc (human). Also, the ΔΔGmut in [6] is 2.02 kcal/mol; in test [7] it was 2.02 kcal/mol; in test [8] it was 2.51 kcal/mol; in [9], 2.53 kcal/mol.

B3: #A08 IgG1 (standard IgG1 built from the #A08 lead heavy and light chains) (antibody, V domains shown)
VH: EVQLQESGPGLVKPSGTLSLTCAVSGGSISSNNWWSWVRQPPGKGLEWIGEIYHSGSTSYNPSLKSRVTISVDKSKNQFSLKLSSVTAADTAVYYCARGTDWFDPWGQGTLVTVSS
VL: SYVLTQPPSVSVAPGQTARITCGGNNIGSESVHWYQQKPGQAPVLVVYDDSDRPSGIPERFSGSNSGNTATLTISRVEAGDEADYYCQVWDSTSDHRVFGGGTKLTVLG
Take B3: in [10], the EC50 is 0.008 nM.
